Data: patent US20150037339A1 (Regeneron, published 2015)

T1: Activin A (homodimer of two inhibin βA subunits; R&D Systems, #338-AC) (human, UniProt P08476 311-426)
T1 construct: Bought protein; also called inhibin-βA dimer
T1 sequence: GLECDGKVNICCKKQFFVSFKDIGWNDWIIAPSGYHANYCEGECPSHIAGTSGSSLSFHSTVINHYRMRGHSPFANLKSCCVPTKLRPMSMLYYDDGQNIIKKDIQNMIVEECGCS


Tests used:
[1] = target: T1, Activin A (homodimer of two inhibin βA …); assay: SPR blocking: 5 nM Activin A + 7.5 nM binder over Follistatin-288 surface
Protocol: (§1) The binding signal (RU) was measured at 150 seconds after the start of the injection, and this signal was subtracted by the measured RU value for a negative control reference surface to determine the specific binding signal.

[2] = target: T1, Activin A (homodimer of two inhibin βA …); assay: SPR blocking: 5 nM Activin A + 0.94 nM binder over hActRIIB-hFc (Control 4) surface
[3] = target: T1, Activin A (homodimer of two inhibin βA …); assay: SPR blocking: 5 nM Activin A + 0 nM binder over Follistatin-288 surface
Protocol: as §1

[4] = target: T1, Activin A (homodimer of two inhibin βA …); assay: SPR blocking: 5 nM Activin A + 0.00 nM binder over hActRIIA-hFc surface
Protocol: as §1

[5] = target: T1, Activin A (homodimer of two inhibin βA …); assay: SPR blocking: 5 nM Activin A + 30 nM binder over hActRIIB-hFc (Control 4) surface
Protocol: as §1

[6] = target: T1, Activin A (homodimer of two inhibin βA …); assay: SPR blocking: 5 nM Activin A + 0.94 nM binder over Follistatin-288 surface
Protocol: as §1

[7] = target: T1, Activin A (homodimer of two inhibin βA …); assay: SPR blocking: 5 nM Activin A + 15 nM binder over Follistatin-288 surface
Protocol: as §1

[8] = target: T1, Activin A (homodimer of two inhibin βA …); assay: SPR blocking: 5 nM Activin A + 3.75 nM binder over Follistatin-288 surface
Protocol: as §1

[9] = target: T1, Activin A (homodimer of two inhibin βA …); assay: SPR blocking: 5 nM Activin A + 1.88 nM binder over hActRIIB-hFc (Control 4) surface
Protocol: as §1

[10] = target: T1, Activin A (homodimer of two inhibin βA …); assay: SPR blocking: 5 nM Activin A + 3.75 nM binder over hActRIIA-hFc surface
Protocol: as §1

[11] = target: T1, Activin A (homodimer of two inhibin βA …); assay: SPR blocking: 5 nM Activin A + 60 nM binder over hActRIIB-hFc (Control 4) surface
Protocol: as §1

[12] = target: T1, Activin A (homodimer of two inhibin βA …); assay: SPR blocking: 5 nM Activin A + 60 nM binder over hActRIIA-hFc surface
Protocol: as §1

[13] = target: T1, Activin A (homodimer of two inhibin βA …); assay: SPR blocking: 5 nM Activin A + 30 nM binder over Follistatin-288 surface
Protocol: as §1

[14] = target: T1, Activin A (homodimer of two inhibin βA …); assay: SPR blocking: 5 nM Activin A + 30 nM binder over hActRIIA-hFc surface
Protocol: as §1

[15] = target: T1, Activin A (homodimer of two inhibin βA …); assay: SPR blocking: 5 nM Activin A + 60 nM binder over Follistatin-288 surface
Protocol: as §1

[16] = target: T1, Activin A (homodimer of two inhibin βA …); assay: SPR blocking: 5 nM Activin A + 7.50 nM binder over hActRIIB-hFc (Control 4) surface
[17] = target: T1, Activin A (homodimer of two inhibin βA …); assay: SPR blocking: 5 nM Activin A + 15 nM binder over hActRIIA-hFc surface
Protocol: as §1

[18] = target: T1, Activin A (homodimer of two inhibin βA …); assay: SPR blocking: 5 nM Activin A + 1.88 nM binder over hActRIIA-hFc surface
Protocol: as §1

[19] = target: T1, Activin A (homodimer of two inhibin βA …); assay: SPR blocking: 5 nM Activin A + 7.50 nM binder over hActRIIA-hFc surface
Protocol: as §1

[20] = target: T1, Activin A (homodimer of two inhibin βA …); assay: SPR blocking: 5 nM Activin A + 0.00 nM binder over hActRIIB-hFc (Control 4) surface
Protocol: as §1

[21] = target: T1, Activin A (homodimer of two inhibin βA …); assay: SPR blocking: 5 nM Activin A + 1.88 nM binder over Follistatin-288 surface
Protocol: as §1

[22] = target: T1, Activin A (homodimer of two inhibin βA …); assay: SPR blocking: 5 nM Activin A + 3.75 nM binder over hActRIIB-hFc (Control 4) surface
Protocol: as §1

[23] = target: T1, Activin A (homodimer of two inhibin βA …); assay: SPR blocking: 5 nM Activin A + 0.94 nM binder over hActRIIA-hFc surface
Protocol: as §1

[24] = target: T1, Activin A (homodimer of two inhibin βA …); assay: SPR blocking: 5 nM Activin A + 15 nM binder over hActRIIB-hFc (Control 4) surface

Binder	% bound RU w/no inhibitor [1]	% bound RU w/no inhibitor [2]	% bound RU w/no inhibitor [3]	% bound RU w/no inhibitor [4]	% bound RU w/no inhibitor [5]	% bound RU w/no inhibitor [6]	% bound RU w/no inhibitor [7]	% bound RU w/no inhibitor [8]	% bound RU w/no inhibitor [9]	% bound RU w/no inhibitor [10]	% bound RU w/no inhibitor [11]	% bound RU w/no inhibitor [12]	% bound RU w/no inhibitor [13]	% bound RU w/no inhibitor [14]	% bound RU w/no inhibitor [15]	% bound RU w/no inhibitor [16]	% bound RU w/no inhibitor [17]	% bound RU w/no inhibitor [18]	% bound RU w/no inhibitor [19]	% bound RU w/no inhibitor [20]	further results
H4H10442P2 (antibody, human IgG4, V domains shown, H4H prefix means human IgG4 Fc) VH: QVQLQESGPGLVKPSETLSITCTVSGGSFSSHFWTWIRQPPGKGLEWIGYLHYSGGTSYNPSLKSRVIISVDTSKNQFSLKLNSVTAADTAVYYCARARSGITFGGLIVPGSFDIWGQGTMVTVSS VL: not shown	3%	110%	100%	100%	122%	73%	3%	6%	106%	95%	124%	118%	3%	117%	3%	103%	113%	114%	105%	100%	% bound RU w/no inhibitor [21]: 46%; % bound RU w/no inhibitor [22]: 88%; % bound RU w/no inhibitor [23]: 114%; % bound RU w/no inhibitor [24]: 115%
H4H10430P (antibody, human IgG4, V domains shown, H4H prefix means human IgG4 Fc) VH: EVQLVESGGGLVQPGRSLRLSCKASGFAFDDFAMHWVRQAPGKGLEWVSGIVWNSGDIGYADSVKGRFTISRDNAKNSLYLQLNSLRTEDTALYFCVKDMVRGLMGFNYYGMDVWGQGTTVTVSS VL: EIVLTQSPATLSLSPGERATLSCRASQTISTYLVWYRQRPGQAPSLLIYDASNRATDIPARFSGSGSGTDFTLTISSLEPEDFAVYYCQQRSNWPITFGQGTRLEIK	1%	80%	100%	100%	3%	79%	1%	15%	62%	19%	3%	2%	1%	2%	1%	4%	2%	62%	3%	100%	% bound RU w/no inhibitor [21]: 59%; % bound RU w/no inhibitor [22]: 20%; % bound RU w/no inhibitor [23]: 81%; % bound RU w/no inhibitor [24]: 3%

Now from value to binder, other results behind:

% bound RU w/no inhibitor [1]	% bound RU w/no inhibitor [2]	% bound RU w/no inhibitor [3]	% bound RU w/no inhibitor [4]	% bound RU w/no inhibitor [5]	% bound RU w/no inhibitor [6]	% bound RU w/no inhibitor [7]	% bound RU w/no inhibitor [8]	% bound RU w/no inhibitor [9]	% bound RU w/no inhibitor [10]	% bound RU w/no inhibitor [11]	% bound RU w/no inhibitor [12]	% bound RU w/no inhibitor [13]	% bound RU w/no inhibitor [14]	% bound RU w/no inhibitor [15]	% bound RU w/no inhibitor [16]	% bound RU w/no inhibitor [17]	% bound RU w/no inhibitor [18]	% bound RU w/no inhibitor [19]	% bound RU w/no inhibitor [20]	Binder	further results
3%	107%	100%	100%	89%	77%	3%	7%	105%	85%	129%	118%	3%	98%	3%	95%	108%	115%	94%	100%	H4H10446P2 (antibody, human IgG4, V domains shown, H4H prefix means human IgG4 Fc) VH: QVQLQESGPGLVKPSETLSLTCTVSGGSFSSHFWSWIRQPPGKGLEWIGYILYTGGTSFNPSLKSRVSMSVGTSKNQFSLKLSSVTAADTAVYYCARARSGITFTGIIVPGSFDIWGQGTMVTVSS VL: not shown	% bound RU w/no inhibitor [21]: 54%; % bound RU w/no inhibitor [22]: 76%; % bound RU w/no inhibitor [23]: 111%; % bound RU w/no inhibitor [24]: 115%
4%	79%	100%	100%	4%	76%	2%	17%	58%	17%	4%	3%	1%	3%	0%	7%	4%	52%	6%	100%	H4H10440P2 (antibody, human IgG4, V domains shown, H4H prefix means human IgG4 Fc) VH: EVQLVESGGGVVQPGGSLRLSCAASTFTFDDFAMHWVRQAPGKGLEWVSLITGDGGSTYYADPVKGRFTISRDNSKNSLYLQMNSLRTEDTALYYCVKDWWIAARPDYYYYGMDVWGQGTTVTVSS VL: not shown	% bound RU w/no inhibitor [21]: 57%; % bound RU w/no inhibitor [22]: 19%; % bound RU w/no inhibitor [23]: 75%; % bound RU w/no inhibitor [24]: 4%
